From PMC9430723

Columns and labels:
[1] = molecular target: T1, AlkX (Rv3249c), TetR family regulator (Mycobacterium tuberculosis) (UniProt O05892); test: EMSA
T1 sequence: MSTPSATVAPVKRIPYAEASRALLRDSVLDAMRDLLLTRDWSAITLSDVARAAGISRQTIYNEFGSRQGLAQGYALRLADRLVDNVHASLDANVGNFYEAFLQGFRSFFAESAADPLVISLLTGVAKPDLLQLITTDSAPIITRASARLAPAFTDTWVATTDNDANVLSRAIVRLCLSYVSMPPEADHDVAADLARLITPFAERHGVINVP

[2] = molecular target: T1, AlkX (Rv3249c), TetR family regulator (Mycobacterium tuberculosis); test: competition

Sequence | binding [1] | binding [2]
CGGCGATTGACTGTTCTACCGACTTCATGCGCCGTCGACCGGCCATGCACCCGTCCTCTCGCACTCGTTGTGACCGCACAGTACTGGGTACTCTGCGAGGATGACGGGTCGCGTAGGGAACCCGAAGGACCACGCCGTGGTGATCGGAGCTAGCATCGCCGGGTTGTGCGCCGCGCGGGTGCTCTCGGACTTCTACTCCA (double strand) [rv3253c promoter probe] | no binding | –
TCGGCAAGCTCGAGAGAGCGCGACCCGGAGGTGTTGAACTAGCTTCGCCGCGTATTTACAAATTGCGTTATATGTCTAGACATAAGACGCAAACTGCTCTATTGTCAAATCCCAACGTGGTGTGGCTCATGAGGAGGTTTGGCATATGACCACGCAAATCGGCTCTGGTGGACCCGAAG (double strand) [rv3252c (alkB) promoter probe] | binds | –
TCGGCAAGCTCGAGAGAGCGCGACCCGGAGGTGTTGAACTAGCTTCGCCGCGTATTTACAAATTGCGTTATATGTCTAGACATAAGACGCAAACTGCTCTATTGTCAAATCCCAACGTGGTGTGGCTCATGAGGAGGTTTGGCATATGACCACGCAAATCGGCTCTGGTGGACCCGAAG (double strand) [unlabeled (cold) rv3252c (alkB) promoter probe] | – | binds
